Assay [1] deals with crude membrane preparations of leg muscles, kidneys, liver, brain, and uterus. In words: Tissue specificity of 125I-RLF binding. Also noted: species or system mouse. The following applies: skeletal muscle, kidney and liver tested, female estrogen primed mice. The method, then: FIG. 6. FIG. 6 depicts the tissue distribution of RLF receptors in female estrogen primed mice as measured in vitro in a receptor-binding assay.
Tissue specificity was determined using crude membrane preparations of leg muscles, kidneys, liver. brain, and uterus (of estrogen primed mice). The crude membranes were prepared as described for relaxin. Binding was based on protein concentration determined by Lowry.

In assay [2] the test system is collagen expression, rheumatoid synovial fibroblasts (Strain No. RSF64). Kind of assay: Inhibition of collagen expression by synovial fibroblasts. Type of assay: cell-based, human. The method, then:
The method for detecting and measuring collagen formation in the presence of relaxin described in Unemori and Amento, 1990, J. Biol. Chem. 265:10681-685 has been modified as follows to determine the ability of RLF, in vitro, to modulate the expression of collagen. Materials and Methods. Rheumatoid synovial fibroblasts (Strain No. […] The cells were simultaneously biosynthetically labelled with ^3H=[…] μCi/ml) in the presence of ascorbate and BAPN. After 24 hours, the conditioned media were collected and electrophoresed on 4-12% polyacrylamide gels (NOVEX) under reducing conditions. Gels were enhanced, dried, and exposed to X-ray films for 1-2 weeks. Collagen bands were identified on the X-ray films as bacterial collagenase-sensitive, proline-incorporating bands between 95-200 kDa. Band density was quantified by scanning densitometry and used as estimates of collagen expression.

The target of assay [3] is mouse brain relaxin receptor (mouse). In words: displacement of porcine relaxin tracer, mouse brain crude membranes.
The target is the same in assay [4]. Kind of assay: displacement of porcine relaxin tracer, mouse brain crude membranes; amount of competitor at 50% binding.
In assay [5] the target is RLF receptor of mouse brain (mouse). In words: displacement of 125I-RLF tracer, mouse brain crude membranes; amount of competitor at 50% binding.
Assay [6] concerns the target mouse uterine relaxin receptor (mouse). In words: displacement of porcine relaxin tracer, mouse uterus crude membranes; amount of competitor at 50% binding.
The target in assay [7] is RLF receptor of mouse uterus (mouse). Kind of assay: displacement of 125I-RLF tracer, mouse uterus crude membranes; amount of competitor at 50% binding. (In general: Displacement assays read how much labelled ligand stays bound in the presence of the test substance.)
Sequence of RLF receptor of mouse uterus (mouse) (Q91ZZ5 whole entry): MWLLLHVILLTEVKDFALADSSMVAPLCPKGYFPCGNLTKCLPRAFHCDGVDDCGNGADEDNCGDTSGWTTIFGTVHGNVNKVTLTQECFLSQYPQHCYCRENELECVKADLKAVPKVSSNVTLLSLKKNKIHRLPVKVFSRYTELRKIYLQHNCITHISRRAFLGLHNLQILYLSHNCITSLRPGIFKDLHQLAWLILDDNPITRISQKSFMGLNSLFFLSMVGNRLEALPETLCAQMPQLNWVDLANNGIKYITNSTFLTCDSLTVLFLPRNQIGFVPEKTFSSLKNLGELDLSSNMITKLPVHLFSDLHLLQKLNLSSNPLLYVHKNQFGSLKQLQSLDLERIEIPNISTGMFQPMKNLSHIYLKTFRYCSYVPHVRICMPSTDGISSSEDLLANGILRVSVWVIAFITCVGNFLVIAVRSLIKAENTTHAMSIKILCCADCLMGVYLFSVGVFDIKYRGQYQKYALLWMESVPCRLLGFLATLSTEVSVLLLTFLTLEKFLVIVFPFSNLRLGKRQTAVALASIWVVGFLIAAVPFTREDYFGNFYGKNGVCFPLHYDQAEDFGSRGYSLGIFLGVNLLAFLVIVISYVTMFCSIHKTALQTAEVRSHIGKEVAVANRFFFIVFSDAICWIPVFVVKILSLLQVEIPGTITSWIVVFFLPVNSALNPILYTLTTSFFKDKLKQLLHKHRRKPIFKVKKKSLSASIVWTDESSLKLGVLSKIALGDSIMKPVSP

Positions of bridges follow the written chain, without caps; N, C: chain ends. Chains are numbered I, II in the order given. No end group written: not given here.

Sequence of mouse uterine relaxin receptor (mouse) (Q6R6I7 whole entry): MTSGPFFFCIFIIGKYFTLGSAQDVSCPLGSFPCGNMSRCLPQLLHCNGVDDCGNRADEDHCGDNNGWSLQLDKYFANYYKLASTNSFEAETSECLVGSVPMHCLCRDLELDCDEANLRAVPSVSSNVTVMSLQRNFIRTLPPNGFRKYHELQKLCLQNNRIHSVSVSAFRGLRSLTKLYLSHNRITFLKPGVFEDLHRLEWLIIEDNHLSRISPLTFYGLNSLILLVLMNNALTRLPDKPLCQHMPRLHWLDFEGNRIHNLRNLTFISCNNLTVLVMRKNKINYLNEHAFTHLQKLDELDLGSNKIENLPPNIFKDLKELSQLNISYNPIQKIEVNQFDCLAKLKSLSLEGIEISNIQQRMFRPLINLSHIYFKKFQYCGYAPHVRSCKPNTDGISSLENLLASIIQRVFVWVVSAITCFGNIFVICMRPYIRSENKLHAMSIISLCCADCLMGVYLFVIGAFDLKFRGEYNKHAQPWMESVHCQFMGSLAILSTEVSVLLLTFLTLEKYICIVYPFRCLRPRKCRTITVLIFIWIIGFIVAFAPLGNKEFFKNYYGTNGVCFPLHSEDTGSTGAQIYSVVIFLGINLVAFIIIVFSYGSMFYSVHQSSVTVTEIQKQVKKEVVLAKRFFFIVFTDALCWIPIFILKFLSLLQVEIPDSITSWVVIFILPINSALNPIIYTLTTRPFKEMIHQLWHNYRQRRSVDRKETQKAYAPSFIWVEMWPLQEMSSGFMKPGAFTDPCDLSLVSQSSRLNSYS

Take “^125I-RLF: 125I-labeled RLF used as tracer (chain 1 AAATNPARYCCLSGCTQQDLLTLCPY; chain 2 PTPEMREKLCGHHFVRALVRVCGGPRWSTEA; disulfide I:11-II:10; cysteine pairing not given here; also: 125I-labeled (site not given here))”: the “tissues showing specific binding” value in assay [1] is “only the brain- and the uterus membrane preparation showed specific binding”.

On to TGF-β [reference compound], for which the “increase of collagen expression over untreated fibroblasts” value in assay [2] is given as 3.75 fold.

B1: human relaxin-like factor (RLF), synthetic (ligand)
chain 1: AAATNPARYCCLSGCTQQDLLTLCPY
chain 2: PTPEMREKLCGHHFVRALVRVCGGPRWSTEA
B1: in assay [3], the excess that displaces 50% of the relaxin tracer came to 100 fold excess. Further, the 50% Binding is 200 ng in assay [4], 0.3 ng in assay [5], 10000 ng in assay [6] and 0.3 ng in assay [7].

B2: human relaxin (ligand)
chain 1: QLYSALANKCCHVGCTKRSLARFC
chain 2: DSWMEEVIKLCGRELVRAQIAICGMSTWS
Consider B2, for which the 50% Binding in assay [4] was found to be 1 ng; in assay [5] it was 1000 ng; in assay [6] it was 1 ng; in assay [7], 800 ng.

(Values after patent US6949506B2, “Relaxin-like factor and methods and uses thereof” (BAS Medical, Inc., priority 1995, dated 2005).)
